# Results: paper PMC3045209
# Molecular target: protein A (UniProt P38507)
# Test: SPR
substance,measurement,value
rabbit IgG (antibody),SPR angle increase,2.1 °
